Legend:
Test in all cases: fluorescence dot blot
[1] = target: T1, PBP2a (penicillin binding protein 2a), recombinant soluble (Staphylococcus aureus (MRSA)?, UniProt Q7DHH4 25-668)
T1 sequence: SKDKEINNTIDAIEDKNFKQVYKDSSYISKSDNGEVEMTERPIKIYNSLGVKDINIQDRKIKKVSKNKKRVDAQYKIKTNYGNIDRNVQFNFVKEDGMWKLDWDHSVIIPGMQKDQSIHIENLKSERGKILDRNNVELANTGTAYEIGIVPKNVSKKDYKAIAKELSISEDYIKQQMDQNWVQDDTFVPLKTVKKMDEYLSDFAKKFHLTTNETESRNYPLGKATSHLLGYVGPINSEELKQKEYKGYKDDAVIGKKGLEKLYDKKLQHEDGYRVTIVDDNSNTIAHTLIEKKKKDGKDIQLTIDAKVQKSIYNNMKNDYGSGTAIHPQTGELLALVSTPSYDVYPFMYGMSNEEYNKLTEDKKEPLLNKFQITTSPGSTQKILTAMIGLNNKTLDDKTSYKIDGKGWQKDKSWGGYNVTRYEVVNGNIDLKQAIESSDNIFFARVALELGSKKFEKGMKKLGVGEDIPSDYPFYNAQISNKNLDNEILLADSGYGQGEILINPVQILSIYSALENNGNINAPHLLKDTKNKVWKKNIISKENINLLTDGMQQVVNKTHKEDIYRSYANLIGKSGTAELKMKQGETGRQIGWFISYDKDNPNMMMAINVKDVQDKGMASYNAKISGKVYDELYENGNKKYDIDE

myeloperoxidase (MPO) = myeloperoxidase (MPO) (UniProt P05164;P05164 165-273;279-745)
thrombin = thrombin (UniProt P00734;P00734 328-363;364-622)

Sequence of myeloperoxidase (MPO) (P05164 165-273, chain 1 of 2): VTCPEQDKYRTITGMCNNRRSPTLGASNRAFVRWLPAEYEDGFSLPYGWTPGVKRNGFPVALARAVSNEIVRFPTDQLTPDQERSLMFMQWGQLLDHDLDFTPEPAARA
Sequence of myeloperoxidase (MPO) (P05164 279-745, chain 2 of 2): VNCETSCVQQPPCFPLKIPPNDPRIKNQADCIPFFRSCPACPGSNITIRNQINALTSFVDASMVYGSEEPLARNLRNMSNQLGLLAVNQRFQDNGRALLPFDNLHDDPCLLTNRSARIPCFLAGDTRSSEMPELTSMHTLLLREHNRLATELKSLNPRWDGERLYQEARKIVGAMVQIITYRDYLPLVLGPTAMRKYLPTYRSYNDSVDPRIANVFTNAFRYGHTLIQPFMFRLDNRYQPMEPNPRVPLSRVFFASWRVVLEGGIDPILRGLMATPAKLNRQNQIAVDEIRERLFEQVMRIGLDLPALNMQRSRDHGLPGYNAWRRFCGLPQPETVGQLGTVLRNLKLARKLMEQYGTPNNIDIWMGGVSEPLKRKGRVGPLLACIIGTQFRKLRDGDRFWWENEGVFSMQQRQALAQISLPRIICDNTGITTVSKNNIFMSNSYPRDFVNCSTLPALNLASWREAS

B1: PBP2a-Apt1T1 (ssDNA)
DNA: ATGCCATCCTACCAACCCGGTGTTCGTGTGGGTGTAGAGGGGGCGAAGGATGGC
With B1 the Kd [1] was 58 ± 11 nM, the binding result (myeloperoxidase (MPO)) was “no binding” and the binding result (thrombin) was “no binding”.

— paper PMC12338438
